Assay results: patent US20240197834A1, “PHARMACEUTICAL COMPOSITION FOR PREVENTING OR TREATING CHRONIC RENAL DISEASE INCLUDING GLUCAGON DERIVATIVE” (HANMI PHARM. CO., LTD., priority 2021, published 2024)
Bridge positions count the residues as written; N and C are the ends. Square brackets hold non-standard residues; d marks the D form. Ends that are not written are not given here. Aib = CC(C)(N)C(=O)O

Assay: pI of native glucagon and glucagon derivatives
Type: physicochemical
Experimental: Accordingly, as described in Table 1 below, a native glucagon and glucagon derivatives having equivalent activity thereto were first prepared. Referring to WO 2016/108586, WO 2017/003191, and WO 2018/004283, the glucagon derivatives were synthesized, and pl and in vitro activity thereof were measured.

Which pl does the source give for “HSQGTFTSDYSKYLDCDRAQDFVQWLMNT (glucagon derivative) [SEQ ID NO: 2]” here?
The pl was 4.56.

For “HSQGTFTSDYSKYLDCERAQDFVQWLMNT (glucagon derivative) [SEQ ID NO: 3]”, which pl is on record?
Its pl is 4.66.

With “HSQGTFTSDYSKYLDSCDAQDFVQWLMNT (glucagon derivative) [SEQ ID NO: 4]” as the sequence, how does the pl read?
The pl was 4.13.

Which pl does the source give for “HSQGTFTSDYSKYLDSCEADDFVQWLMNT (glucagon derivative) [SEQ ID NO: 6]” here?
Its pl is 4.03.

Which pl does the source give for “HSQGTFTSDYSKYLDSCEAQDFVQWLMNT (glucagon derivative) [SEQ ID NO: 5]” here?
Its pl is 4.22.

With “SQGTFTSDYSKYLDECRAKEFVQWLMNT (lactam 15-19) [SEQ ID NO: 32]” as the sequence, how does the pl read?
The pl was 4.78.

For “WXQGTFTSDYSKCLDERRAKDFVQWLMNT (W[Aib]QGTFTSDYSKCLDERRAKDFVQWLMNT; lactam 16-20) [SEQ ID NO: 30]”, which pl is on record?
The pl was 4.44.

With “WXQGTFTSDYSKYCDERRAKEFVQWLMNT (W[Aib]QGTFTSDYSKYCDERRAKEFVQWLMNT; lactam 16-20) [SEQ ID NO: 34]” as the sequence, how does the pl read?
Its pl is 6.21.

Which pl does the source give for “WXQGTFTSDYSKYLDECRAKDFVQWLMNT (W[Aib]QGTFTSDYSKYLDECRAKDFVQWLMNT; lactam 16-20) [SEQ ID NO: 26]” here?
Its pl is 4.68.

Which pl does the source give for “WXQGTFVSDYSKYLDECRAKDFVQWLMNT (W[Aib]QGTFVSDYSKYLDECRAKDFVQWLMNT; lactam 16-20) [SEQ ID NO: 28]” here?
The pl was 4.68.

For “YSQGTFTSDYSKYLDSCEADDFVQWLMNT (glucagon derivative) [SEQ ID NO: 7]”, which pl is on record?
Its pl is 3.71.

For “YXQGTFCSDYSKYLDERRAKDFVQWLMNT (Y[Aib]QGTFCSDYSKYLDERRAKDFVQWLMNT; lactam 16-20) [SEQ ID NO: 41]”, which pl is on record?
The pl was 6.03.

For “YXQGTFCSDYSKYLDERRAKEFVQWLMNT (Y[Aib]QGTFCSDYSKYLDERRAKEFVQWLMNT; lactam 16-20) [SEQ ID NO: 38]”, which pl is on record?
The pl was 6.15.

Which pl does the source give for “YXQGTFCSDYSKYLDSRRAQDFVQWLMNT (Y[Aib]QGTFCSDYSKYLDSRRAQDFVQWLMNT) [SEQ ID NO: 42]” here?
Its pl is 6.03.

For “YXQGTFTSDCSKYLDERRAKEFVQWLMNT (Y[Aib]QGTFTSDCSKYLDERRAKEFVQWLMNT; lactam 16-20) [SEQ ID NO: 36]”, which pl is on record?
Its pl is 6.21.

Which pl does the source give for “YXQGTFTSDCSKYLDSRRAQDFVQWLMNT (Y[Aib]QGTFTSDCSKYLDSRRAQDFVQWLMNT) [SEQ ID NO: 43]” here?
The pl was 6.03.

For “YXQGTFTSDYSCYLDEKRAKEFVQWLMNT (Y[Aib]QGTFTSDYSCYLDEKRAKEFVQWLMNT) [SEQ ID NO: 45]”, which pl is on record?
The pl was 4.78.

With “YXQGTFTSDYSCYLDSRRAQDFVQWLMNT (Y[Aib]QGTFTSDYSCYLDSRRAQDFVQWLMNT) [SEQ ID NO: 13]” as the sequence, how does the pl read?
The pl was 4.43.

Which pl does the source give for “YXQGTFTSDYSKCLDEKRAKEFVQWLMNT (Y[Aib]QGTFTSDYSKCLDEKRAKEFVQWLMNT; lactam 16-20) [SEQ ID NO: 24]” here?
The pl was 6.21.

Which pl does the source give for “YXQGTFTSDYSKCLDERRAKDFVQWLMNT (Y[Aib]QGTFTSDYSKCLDERRAKDFVQWLMNT; lactam 16-20) [SEQ ID NO: 29]” here?
The pl was 6.15.

With “YXQGTFTSDYSKYCDEKRAKEFVQWLMNT (Y[Aib]QGTFTSDYSKYCDEKRAKEFVQWLMNT; lactam 16-20) [SEQ ID NO: 23]” as the sequence, how does the pl read?
The pl was 6.20.

Which pl does the source give for “YXQGTFTSDYSKYCDERRAKEFVQWLMNT (Y[Aib]QGTFTSDYSKYCDERRAKEFVQWLMNT; lactam 16-20) [SEQ ID NO: 35]” here?
The pl was 6.2.

Which pl does the source give for “YXQGTFTSDYSKYLCEKRAKEFVQWLMNT (Y[Aib]QGTFTSDYSKYLCEKRAKEFVQWLMNT; lactam 16-20) [SEQ ID NO: 19]” here?
Its pl is 8.12.

Which pl does the source give for “YXQGTFTSDYSKYLCEKRAQDFVVWLMNT (Y[Aib]QGTFTSDYSKYLCEKRAQDFVVWLMNT) [SEQ ID NO: 15]” here?
Its pl is 6.11.

With “YXQGTFTSDYSKYLDCKRAKEFVQWLMNT (Y[Aib]QGTFTSDYSKYLDCKRAKEFVQWLMNT; lactam 17-21) [SEQ ID NO: 31]” as the sequence, how does the pl read?
Its pl is 8.12.

For “YXQGTFTSDYSKYLDCKRAKEFVQWLMNT [SEQ ID NO: 14] (Y[Aib]QGTFTSDYSKYLDCKRAKEFVQWLMNT)”, which pl is on record?
The pl was 8.12.

With “YXQGTFTSDYSKYLDCRRAQVFVQWLMRT (Y[Aib]QGTFTSDYSKYLDCRRAQVFVQWLMRT) [SEQ ID NO: 16]” as the sequence, how does the pl read?
The pl was 9.11.

For “YXQGTFTSDYSKYLDCVRAQDFVQWLMRT (Y[Aib]QGTFTSDYSKYLDCVRAQDFVQWLMRT) [SEQ ID NO: 17]”, which pl is on record?
The pl was 6.03.

For “YXQGTFTSDYSKYLDECRAKEFVQWLMNT (Y[Aib]QGTFTSDYSKYLDECRAKEFVQWLMNT; lactam 16-20) [SEQ ID NO: 20]”, which pl is on record?
Its pl is 4.78.

Which pl does the source give for “YXQGTFTSDYSKYLDEKCAKEFVQWLMNT [SEQ ID NO: 11] (Y[Aib]QGTFTSDYSKYLDEKCAKEFVQWLMNT)” here?
Its pl is 4.78.

For “YXQGTFTSDYSKYLDEKCAKEFVQWLMNT [SEQ ID NO: 21] (Y[Aib]QGTFTSDYSKYLDEKCAKEFVQWLMNT; lactam 16-20)”, which pl is on record?
The pl was 4.78.

For “YXQGTFTSDYSKYLDEKRAKCFVQWLMNT (Y[Aib]QGTFTSDYSKYLDEKRAKCFVQWLMNT; lactam 16-20) [SEQ ID NO: 25]”, which pl is on record?
Its pl is 8.12.

Which pl does the source give for “YXQGTFTSDYSKYLDEKRAKEFVQWLMNTC (Y[Aib]QGTFTSDYSKYLDEKRAKEFVQWLMNTC; lactam 16-20) [SEQ ID NO: 12]” here?
The pl was 6.20.

Which pl does the source give for “YXQGTFTSDYSKYLDEKRCKEFVQWLMNT (Y[Aib]QGTFTSDYSKYLDEKRCKEFVQWLMNT; lactam 16-20) [SEQ ID NO: 22]” here?
The pl was 6.20.

With “YXQGTFTSDYSKYLDERRAKEFVQWLMNTC (Y[Aib]QGTFTSDYSKYLDERRAKEFVQWLMNTC; lactam 16-20) [SEQ ID NO: 37]” as the sequence, how does the pl read?
Its pl is 6.21.

For “YXQGTFTSDYSKYLDSCDADDFVVWLINT (Y[Aib]QGTFTSDYSKYLDSCDADDFVVWLINT) [SEQ ID NO: 10]”, which pl is on record?
The pl was 3.66.

Which pl does the source give for “YXQGTFTSDYSKYLDSCDAQDFVQWLINT (Y[Aib]QGTFTSDYSKYLDSCDAQDFVQWLINT) [SEQ ID NO: 8]” here?
Its pl is 3.77.

Which pl does the source give for “YXQGTFTSDYSKYLDSCDAQDFVVWLINT (Y[Aib]QGTFTSDYSKYLDSCDAQDFVVWLINT) [SEQ ID NO: 9]” here?
Its pl is 3.77.

With “YXQGTFTSDYSKYLDSRRACDFRLWLMNT (Y[Aib]QGTFTSDYSKYLDSRRACDFRLWLMNT) [SEQ ID NO: 18]” as the sequence, how does the pl read?
Its pl is 8.15.

Which pl does the source give for “YXQGTFTSDYSKYLDSRRAQDFVQWLMNT (X non-natural residue; glucagon derivative; (2) Xaa is aminoisobutyric acid (Aib)) [SEQ ID NO: 33]” here?
Its pl is 6.04.

With “YXQGTFTSDYSKYLDSRRAQDFVQWLMNTC (glucagon derivative; (2) Xaa is aminoisobutyric acid (Aib)) [SEQ ID NO: 44]” as the sequence, how does the pl read?
The pl was 6.21.

Which pl does the source give for “YXQGTFVSDCSKYLDERRAKDFVQWLMNT (Y[Aib]QGTFVSDCSKYLDERRAKDFVQWLMNT; lactam 16-20) [SEQ ID NO: 39]” here?
The pl was 6.15.

Which pl does the source give for “YXQGTFVSDYSKYLDECRAKDFVQWLMNT (Y[Aib]QGTFVSDYSKYLDECRAKDFVQWLMNT; lactam 16-20) [SEQ ID NO: 27]” here?
The pl was 4.68.

With “YXQGTFVSDYSKYLDERRAKDFVQWLMNTC (Y[Aib]QGTFVSDYSKYLDERRAKDFVQWLMNTC; lactam 16-20) [SEQ ID NO: 40]” as the sequence, how does the pl read?
The pl was 6.15.
